Measured values: the supplement of paper PMC10567573

B1: MFF (parent)
chain: YTEGISQRMRVPEKLKVAPPNADL

Variants of: B1
Assay: protein stability index of a GFP-peptide fusion (GPS, HEK-293T) (PSI 1-6); higher = more stable
Conditions: c terminus: a fixed tail appended
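Note: lentivirally expressed fusions sorted by FACS into six bins by GFP to DsRed ratio, PSI derived from sequencing read proportions per bin multiplied by bin number.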

Row | Variant | protein stability index
1 | YTEGIQQRMRVPEKLKVAPPNADL [S6Q] | 2.71
2 | YTEGIAQRMRVPEKLKVAPPNADL [S6A] | 2.76
3 | YTEGIMQRMRVPEKLKVAPPNADL [S6M] | 2.09
4 | YTEGIIQRMRVPEKLKVAPPNADL [S6I] | 2.51
5 | YTEGIHQRMRVPEKLKVAPPNADL [S6H] | 2.63
6 | YTEGIDQRMRVPEKLKVAPPNADL [S6D] | 3.51
7 | YTEGIGQRMRVPEKLKVAPPNADL [S6G] | 2.86
8 | YTEGIEQRMRVPEKLKVAPPNADL [S6E] | 3.91
9 | YTEGINQRMRVPEKLKVAPPNADL [S6N] | 2.93
10 | YTEGIWQRMRVPEKLKVAPPNADL [S6W] | 2.52
11 | YTEGILQRMRVPEKLKVAPPNADL [S6L] | 2.85
12 | YTEGICQRMRVPEKLKVAPPNADL [S6C] | 2.6
13 | YTEGIRQRMRVPEKLKVAPPNADL [S6R] | 2.94
14 | YTEGIVQRMRVPEKLKVAPPNADL [S6V] | 2.19
15 | YTEGIFQRMRVPEKLKVAPPNADL [S6F] | 2.14
16 | YTEGIKQRMRVPEKLKVAPPNADL [S6K] | 2.45
17 | ATEGISQRMRVPEKLKVAPPNADL [Y1A] | 4.62
18 | RTEGISQRMRVPEKLKVAPPNADL [Y1R] | 4.22
19 | STEGISQRMRVPEKLKVAPPNADL [Y1S] | 4.48
20 | DTEGISQRMRVPEKLKVAPPNADL [Y1D] | 4.48
21 | ETEGISQRMRVPEKLKVAPPNADL [Y1E] | 4.55
22 | FTEGISQRMRVPEKLKVAPPNADL [Y1F] | 2.52
23 | PTEGISQRMRVPEKLKVAPPNADL [Y1P] | 4.64
24 | ITEGISQRMRVPEKLKVAPPNADL [Y1I] | 3.87

Row | Variant | protein stability index
25 | CTEGISQRMRVPEKLKVAPPNADL [Y1C] | 4.21
26 | LTEGISQRMRVPEKLKVAPPNADL [Y1L] | 4.21
27 | GTEGISQRMRVPEKLKVAPPNADL [Y1G] | 4.57
28 | VTEGISQRMRVPEKLKVAPPNADL [Y1V] | 4.25
29 | HTEGISQRMRVPEKLKVAPPNADL [Y1H] | 4.52
30 | KTEGISQRMRVPEKLKVAPPNADL [Y1K] | 4.27
31 | TTEGISQRMRVPEKLKVAPPNADL [Y1T] | 4.31
32 | NTEGISQRMRVPEKLKVAPPNADL [Y1N] | 4.67
33 | QTEGISQRMRVPEKLKVAPPNADL [Y1Q] | 4.41
34 | MTEGISQRMRVPEKLKVAPPNADL [Y1M] | 4.59
35 | WTEGISQRMRVPEKLKVAPPNADL [Y1W] | 4.21
36 | YTENISQRMRVPEKLKVAPPNADL [G4N] | 3.75
37 | YTEVISQRMRVPEKLKVAPPNADL [G4V] | 3.21
38 | YTERISQRMRVPEKLKVAPPNADL [G4R] | 3.72
39 | YTETISQRMRVPEKLKVAPPNADL [G4T] | 3.45
40 | YTEQISQRMRVPEKLKVAPPNADL [G4Q] | 3.5
41 | YTEKISQRMRVPEKLKVAPPNADL [G4K] | 3.63
42 | YTELISQRMRVPEKLKVAPPNADL [G4L] | 2.47
43 | YTEYISQRMRVPEKLKVAPPNADL [G4Y] | 2.69
44 | YTESISQRMRVPEKLKVAPPNADL [G4S] | 3.88
45 | YTEHISQRMRVPEKLKVAPPNADL [G4H] | 3.46
46 | YTEDISQRMRVPEKLKVAPPNADL [G4D] | 4.46
47 | YTEAISQRMRVPEKLKVAPPNADL [G4A] | 3.9
48 | YTEPISQRMRVPEKLKVAPPNADL [G4P] | 3.79

Row | Variant | protein stability index
49 | YTEFISQRMRVPEKLKVAPPNADL [G4F] | 2.32
50 | YTEEISQRMRVPEKLKVAPPNADL [G4E] | 3.61
51 | YTEIISQRMRVPEKLKVAPPNADL [G4I] | 3
52 | YTEMISQRMRVPEKLKVAPPNADL [G4M] | 2.52
53 | YTEWISQRMRVPEKLKVAPPNADL [G4W] | 2.25
54 | YTECISQRMRVPEKLKVAPPNADL [G4C] | 3.47
55 | YCEGISQRMRVPEKLKVAPPNADL [T2C] | 2.65
56 | YIEGISQRMRVPEKLKVAPPNADL [T2I] | 1.65
57 | YNEGISQRMRVPEKLKVAPPNADL [T2N] | 3.69
58 | YHEGISQRMRVPEKLKVAPPNADL [T2H] | 2.69
59 | YAEGISQRMRVPEKLKVAPPNADL [T2A] | 2.72
60 | YSEGISQRMRVPEKLKVAPPNADL [T2S] | 3.81
61 | YMEGISQRMRVPEKLKVAPPNADL [T2M] | 3.46
62 | YYEGISQRMRVPEKLKVAPPNADL [T2Y] | 3.2
63 | YWEGISQRMRVPEKLKVAPPNADL [T2W] | 3.17
64 | YFEGISQRMRVPEKLKVAPPNADL [T2F] | 3.2
65 | YLEGISQRMRVPEKLKVAPPNADL [T2L] | 2.13
66 | YREGISQRMRVPEKLKVAPPNADL [T2R] | 3.88
67 | YEEGISQRMRVPEKLKVAPPNADL [T2E] | 4.85
68 | YKEGISQRMRVPEKLKVAPPNADL [T2K] | 3.92
69 | YQEGISQRMRVPEKLKVAPPNADL [T2Q] | 3.03
70 | YDEGISQRMRVPEKLKVAPPNADL [T2D] | 4.18
71 | YGEGISQRMRVPEKLKVAPPNADL [T2G] | 3.85
72 | YVEGISQRMRVPEKLKVAPPNADL [T2V] | 2.46

Row | Variant | protein stability index
73 | YPEGISQRMRVPEKLKVAPPNADL [T2P] | 3.48
74 | YTAGISQRMRVPEKLKVAPPNADL [E3A] | 2.96
75 | YTHGISQRMRVPEKLKVAPPNADL [E3H] | 2.92
76 | YTFGISQRMRVPEKLKVAPPNADL [E3F] | 1.9
77 | YTWGISQRMRVPEKLKVAPPNADL [E3W] | 1.53
78 | YTTGISQRMRVPEKLKVAPPNADL [E3T] | 2.56
79 | YTDGISQRMRVPEKLKVAPPNADL [E3D] | 3.24
80 | YTIGISQRMRVPEKLKVAPPNADL [E3I] | 2.42
81 | YTYGISQRMRVPEKLKVAPPNADL [E3Y] | 2.69
82 | YTLGISQRMRVPEKLKVAPPNADL [E3L] | 2.58
83 | YTGGISQRMRVPEKLKVAPPNADL [E3G] | 2.3
84 | YTRGISQRMRVPEKLKVAPPNADL [E3R] | 3.03
85 | YTMGISQRMRVPEKLKVAPPNADL [E3M] | 2.48
86 | YTQGISQRMRVPEKLKVAPPNADL [E3Q] | 3.01
87 | YTKGISQRMRVPEKLKVAPPNADL [E3K] | 2.41
88 | YTVGISQRMRVPEKLKVAPPNADL [E3V] | 2.44
89 | YTNGISQRMRVPEKLKVAPPNADL [E3N] | 3.3
90 | YTPGISQRMRVPEKLKVAPPNADL [E3P] | 2.29
91 | YTCGISQRMRVPEKLKVAPPNADL [E3C] | 2.28
92 | YTSGISQRMRVPEKLKVAPPNADL [E3S] | 2.54
93 | YTEGISQAMRVPEKLKVAPPNADL [R8A] | 2.82
94 | YTEGISQCMRVPEKLKVAPPNADL [R8C] | 2.47
